# Reference: paper PMC3542137, “Mycobacterium tuberculosis RecG binds and unwinds model DNA substrates with a preference for Holliday junctions”
# T1: RecGMtb (Mycobacterium tuberculosis H37Rv, UniProt P9WMQ7 1-737)
# T1 sequence: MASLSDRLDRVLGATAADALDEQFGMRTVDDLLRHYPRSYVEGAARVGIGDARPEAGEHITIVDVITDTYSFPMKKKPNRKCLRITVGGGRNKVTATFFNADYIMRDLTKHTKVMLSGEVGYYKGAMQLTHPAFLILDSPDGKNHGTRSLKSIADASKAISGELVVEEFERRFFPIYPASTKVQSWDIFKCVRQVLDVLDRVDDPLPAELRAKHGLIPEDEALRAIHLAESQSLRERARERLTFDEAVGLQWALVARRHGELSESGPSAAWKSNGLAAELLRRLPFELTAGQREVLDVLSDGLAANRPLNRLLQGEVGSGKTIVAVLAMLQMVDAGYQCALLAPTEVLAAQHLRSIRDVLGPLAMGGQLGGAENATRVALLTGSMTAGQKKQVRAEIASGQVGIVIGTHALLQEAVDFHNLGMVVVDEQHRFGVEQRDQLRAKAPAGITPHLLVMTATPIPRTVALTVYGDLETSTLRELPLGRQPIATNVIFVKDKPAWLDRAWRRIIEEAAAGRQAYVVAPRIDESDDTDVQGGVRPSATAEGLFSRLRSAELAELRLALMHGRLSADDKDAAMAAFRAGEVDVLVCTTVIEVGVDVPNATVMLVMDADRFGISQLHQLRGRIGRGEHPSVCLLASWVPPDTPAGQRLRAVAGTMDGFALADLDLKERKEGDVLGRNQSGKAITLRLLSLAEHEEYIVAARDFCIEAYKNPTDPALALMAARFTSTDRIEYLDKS
# B1: Holliday junction (substrate H) (structured_DNA)
# DNA 1: GACGCTGCCGAATTCTGGCTTGCTAGGACATCTTTGCCCACGTTGACCC
# DNA 2: TGGGTCAACGTGGGCAAAGATGTCCTAGCAATGTAATCGTCTATGACGTT
# DNA 3: CAACGTCATAGACGATTACATTGCTAGGACATGCTGTCTAGAGACTATCGA
# DNA 4: ATCGATAGTCTCTAGACAGCATGTCCTAGCAAGCCAGAATTCGGCAGCGT
# B2: lagging strand replication fork (substrate E) (structured_DNA)
# DNA 1: GTCGGATCCTCTAGACAGCTCCATGATCACTGGCACTGGTAGAATTCGGC
# DNA 2: CAACGTCATAGACGATTACATTGCTACATGGAGCTGTCTAGAGGATCCGA
# DNA 3: TAGCAATGTAATCGTCTATGACGTT
# B3: 3'-tailed duplex (oligos 1+2) (dsDNA)
# DNA 1: CGTGACATGCCGTGACTAGCTTTTTTTTTTTTTTTTTTTT
# DNA 2: GCTAGTCACGGCATGTCACG
# B4: 5'-tailed duplex (oligos 3+2) (dsDNA)
# DNA 1: TTTTTTTTTTTTTTTTTTTTCGTGACATGCCGTGACTAGC
# DNA 2: GCTAGTCACGGCATGTCACG
# B5: bubble (substrate I) (structured_DNA)
# DNA 1: GGGTGAACCTGCAGGTGGGCGGCTGCTCATCGTAGGTTAGTTGGTAGAATTCGGCAGCGTC
# DNA 2: GACGCTGCCGAATTCTACCAGTGCCTTGCTAGGACATCTTTGCCCACCTGCAGGTTCACCC
# Legend:
# [1] = biological target: T1, RecGMtb; experiment: EMSA; 5 mM EDTA, poly(dI-dC); conditions: protein: recombinant, tags: N-terminal His6 cleaved off with thrombin (pET28b), label: 32P 5' end
# [2] = biological target: T1, RecGMtb; experiment: EMSA; no poly(dI-dC); 1 uM RecG; conditions: protein: recombinant; tags: N-terminal His6 cleaved off with thrombin (pET28b); label: 32P 5' end
# [3] = biological target: T1, RecGMtb; experiment: EMSA; 5 mM EDTA, poly(dI-dC); 2 uM RecG; conditions: protein: recombinant; tags: N-terminal His6 cleaved off with thrombin (pET28b); label: 32P 5' end; bubble 1:2
binder,measurement,setting,value
B1,binding result,[1],binds
B2,binding result,[1]; fork 1:2 2:3,binds
TTTTTTTTTTTTTTTTTTTTTTTTTTTTTTTTTTTTTTTT (ssDNA) [poly(dT) 40 nt],binding result,[2],binds
B3,binding result,[1]; 3' overhang 20 nt (T20),no binding
B4,binding result,[1]; 5' overhang 20 nt (T20),no binding
B5,binding result,[3],binds
